Source: patent US20260063625A1, “COMPOSITIONS FOR AND METHODS OF DETECTING FOOD TOXINS” (priority 2022, published 2026)

B1: E540Q: RcSxph mutant E540Q (protein)
chain: MAPTFQTALFFTIISLSFAAPNAKQVRWCAISDLEQKKCNDLVGSCNVPDITLVCVLRSSTEDCMTAIKDGQADAMFLDSGEVYEASKDPYNLKPIIAEPYSSNRDLQKCLKERQQALAKKMIGHYIPQCDEKGNYQPQQCHGSTGHCWCVNAMGEKISGTNTPPGQTRATCERHELPKCLKERQVALGGDEKVLGRFVPQCDEKGNYEPQQFHGSTGYSWCVNAIGEEIAGTKTPPGKIPATCQKHDLVTTCHYAVAMVKKSSAFQFNQLKGKRSCHSGVSKTDGWKALVTVLVEKKLLSWDGPAKESIQRAMSKFFSVSCIPGATQTNLCKQCKGEEGKNCKNSHDEPYYGNYGAFRCLKEDMGDVAFLRSTALSDEHSEVYELLCPDNTRKPLNKYKECNLGTVPAGTVVTRKISDKTEDINNFLMEAQKRQCKLFSSAHGKDLMFDDSTLQLALLSSEVDAFLYLGVKLFHAMKALTGDAHLPSKNKVRWCTINKLEKMKCDDWSAVSGGAIACTEASCPKGCVKQILKGEADAVKLEVQYMYEALMCGLLPAVQEYHNKDDFGPCKTPGSPYTDFGTLRAVALVKKSNKDINWNNIKGKKSCHTGVGDIAGWVIPVSLIRRQNDNSDIDSFFGESCAPGSDTKSNLCKLCIGDPKNSAANTKCSLSDKEAYYGNQGAFRCLVEKGDVAFVPHTVVFENTDGKNPAVWAKNLKSEDFELLCLDGSRAPVSNYKSCKLSGIPPPAIVTREESISDVVRIVANQQSLYGRKGFEKDMFQLFSSNKGNNLLFNDNTQCLITFDRQPKDIMEDYFGKPYYTTVYGASRSAMSSELISACTIKHC
B2: D794N: RcSxph mutant D794N (protein)
chain: MAPTFQTALFFTIISLSFAAPNAKQVRWCAISDLEQKKCNDLVGSCNVPDITLVCVLRSSTEDCMTAIKDGQADAMFLDSGEVYEASKDPYNLKPIIAEPYSSNRDLQKCLKERQQALAKKMIGHYIPQCDEKGNYQPQQCHGSTGHCWCVNAMGEKISGTNTPPGQTRATCERHELPKCLKERQVALGGDEKVLGRFVPQCDEKGNYEPQQFHGSTGYSWCVNAIGEEIAGTKTPPGKIPATCQKHDLVTTCHYAVAMVKKSSAFQFNQLKGKRSCHSGVSKTDGWKALVTVLVEKKLLSWDGPAKESIQRAMSKFFSVSCIPGATQTNLCKQCKGEEGKNCKNSHDEPYYGNYGAFRCLKEDMGDVAFLRSTALSDEHSEVYELLCPDNTRKPLNKYKECNLGTVPAGTVVTRKISDKTEDINNFLMEAQKRQCKLFSSAHGKDLMFDDSTLQLALLSSEVDAFLYLGVKLFHAMKALTGDAHLPSKNKVRWCTINKLEKMKCDDWSAVSGGAIACTEASCPKGCVKQILKGEADAVKLEVQYMYEALMCGLLPAVEEYHNKDDFGPCKTPGSPYTDFGTLRAVALVKKSNKDINWNNIKGKKSCHTGVGDIAGWVIPVSLIRRQNDNSDIDSFFGESCAPGSDTKSNLCKLCIGDPKNSAANTKCSLSDKEAYYGNQGAFRCLVEKGDVAFVPHTVVFENTDGKNPAVWAKNLKSEDFELLCLDGSRAPVSNYKSCKLSGIPPPAIVTREESISDVVRIVANQQSLYGRKGFEKDMFQLFSSNKGNNLLFNDNTQCLITFDRQPKDIMENYFGKPYYTTVYGASRSAMSSELISACTIKHC

Experiment: Fluorescence polarization (FP) binding to fluorescein labeled STX
Settings: […]G = RT ln (KdSxph mutant/KdSxph); T = 298K
Protocol: […]; Measurements were performed at 25° C. on a Synergy H1 microplate reader (BioTek) using the polarization filter setting (excitation 485 nm, emission 528 nm). […]. The dissociation constants were calculated using GraphPad Prism by fitting fluorescence millipolarization (mP=P·10^−3, where P is polarization) as a function of Sxph concentration using the equation: P={(Pbound−Pfree) [Sxph]/(Kd+[Sxph])}+Pfree, where P is the polarization measured at a given Sxph concentration, Pfree is the […], and Pbound is the maximum polarization of Sxph bound by F-STX (Rossi and Taylor, Hansen et al.).

Molecule | […]G (kcal mol^−1) relative to wild-type RcSxph
B1 | 4.30 kcal/mol
B2 | 3.60 kcal/mol
